Tests used:
Assay in all cases: cell-based or functional assay
[1] = molecular target: rhodopsin in urea treated rod outer segments (bovine) (UniProt P02699)
[2] = molecular target: G protein-coupled receptor kinase GRK6 (human) (human) (UniProt P43250)
[3] = molecular target: G protein-coupled receptor kinase GRK5 (human) (human) (UniProt P34947)
Chain of G protein-coupled receptor kinase GRK5 (human) (human) (P34947 whole entry E78G): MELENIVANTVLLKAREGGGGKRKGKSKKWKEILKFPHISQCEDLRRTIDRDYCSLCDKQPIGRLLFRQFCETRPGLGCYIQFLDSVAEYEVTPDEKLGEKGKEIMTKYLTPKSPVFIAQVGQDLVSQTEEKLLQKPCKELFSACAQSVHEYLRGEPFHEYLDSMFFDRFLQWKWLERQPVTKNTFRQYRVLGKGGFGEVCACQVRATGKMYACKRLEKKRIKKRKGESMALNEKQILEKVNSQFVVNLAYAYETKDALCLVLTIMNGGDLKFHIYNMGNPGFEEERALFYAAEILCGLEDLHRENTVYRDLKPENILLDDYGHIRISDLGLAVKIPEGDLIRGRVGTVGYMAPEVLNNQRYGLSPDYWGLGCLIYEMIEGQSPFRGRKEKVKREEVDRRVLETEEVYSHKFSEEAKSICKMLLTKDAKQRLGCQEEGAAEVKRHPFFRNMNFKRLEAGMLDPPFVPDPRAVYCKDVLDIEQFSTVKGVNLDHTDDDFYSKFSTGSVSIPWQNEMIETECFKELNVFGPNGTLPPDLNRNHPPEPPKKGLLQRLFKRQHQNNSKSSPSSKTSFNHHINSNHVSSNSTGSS

Chain of G protein-coupled receptor kinase GRK6 (human) (human) (P43250 other isoform, or with tags, fused parts or gaps limits assumed): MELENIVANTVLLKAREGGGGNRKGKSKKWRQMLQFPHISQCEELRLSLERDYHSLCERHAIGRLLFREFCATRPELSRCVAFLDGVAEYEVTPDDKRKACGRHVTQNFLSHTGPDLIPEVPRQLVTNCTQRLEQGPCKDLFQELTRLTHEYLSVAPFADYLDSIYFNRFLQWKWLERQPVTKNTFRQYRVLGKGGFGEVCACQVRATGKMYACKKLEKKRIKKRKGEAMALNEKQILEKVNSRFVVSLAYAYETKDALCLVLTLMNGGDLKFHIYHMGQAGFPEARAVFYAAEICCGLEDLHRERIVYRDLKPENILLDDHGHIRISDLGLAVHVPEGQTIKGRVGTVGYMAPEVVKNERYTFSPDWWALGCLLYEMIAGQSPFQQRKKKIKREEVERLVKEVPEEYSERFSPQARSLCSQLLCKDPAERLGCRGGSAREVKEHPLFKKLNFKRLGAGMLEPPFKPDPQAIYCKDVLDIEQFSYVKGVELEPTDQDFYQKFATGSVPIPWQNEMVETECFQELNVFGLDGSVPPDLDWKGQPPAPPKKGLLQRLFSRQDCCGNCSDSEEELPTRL
Chain of rhodopsin in urea treated rod outer segments (bovine) (P02699 whole entry): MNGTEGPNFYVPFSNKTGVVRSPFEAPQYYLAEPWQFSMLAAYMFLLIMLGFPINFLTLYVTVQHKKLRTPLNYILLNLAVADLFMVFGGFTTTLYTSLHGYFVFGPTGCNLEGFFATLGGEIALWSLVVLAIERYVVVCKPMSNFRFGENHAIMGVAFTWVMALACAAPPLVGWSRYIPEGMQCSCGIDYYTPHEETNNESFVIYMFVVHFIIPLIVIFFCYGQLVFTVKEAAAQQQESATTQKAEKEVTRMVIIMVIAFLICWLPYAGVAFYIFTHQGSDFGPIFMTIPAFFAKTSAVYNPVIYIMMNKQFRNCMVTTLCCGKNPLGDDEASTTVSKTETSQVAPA

Row | Substance | light-dependent rhodopsin phosphorylation by Sf9 cell supernatant [1] | IC50 of inhibition of kinase activity [2] | fold less effective as inhibitor compared to GRK5 [2] | also measured
1 | G protein-coupled receptor kinase GRK5 (human) (from UniProt P34947 1-590) (enzyme) | 1120 pmol/min/mg | – | – | –
2 | polyglutamic acid (peptide) | – | 400 nM | 16 fold | –
3 | β-adrenergic receptor kinase (enzyme) | 2470 pmol/min/mg | – | – | –
4 | polylysine, a 14-16 amino acid peptide | – | – | – | fold activation of kinase activity [3]: 2.6 fold
5 | polyaspartic acid (peptide) | – | 487 nM | 6 fold | –
6 | G protein-coupled receptor kinase GRK6 (human) (from UniProt P43250 1-576) (enzyme) | – | – | – | specific activity of phosphorylation of bleached rhodopsin by Sf9 cell supernatant (pmol/min/mg protein) [1]: 81
